This is an account of results in patent publication EP1605964B1 (GEORG-SPEYER-HAUS CHEMOTHERAPEUTISCHES FORSCHUNGSINSTITUT, dated 2004).

To fix the notation:
B1: peptide aptamer KDI1 (SEQ ID NO:1), displayed in E. coli thioredoxin A (TrxA) (designed binder, not shown: large carriers)
chain: MSDKIIHLTDDSFDTDVLKADGAILVDFWAEWCGVFGVSWVVGFWCQMHRRLVCPCKMIAPILDEIADEYQGKLTVAKLNIDQNPGTAPKYGIRGIPTLLLFKNGEVAATKVGALSKGQLKEFLDANLA
notes: The construct used in the GST pulldown is not described
B2: peptide aptamer KDI4 (SEQ ID NO:3), displayed in E. coli thioredoxin A (TrxA) (designed binder, not shown: large carriers)
chain: MSDKIIHLTDDSFDTDVLKADGAILVDFWAEWCGLSFQLSPLSLVHRWGTTVDVPCKMIAPILDEIADEYQGKLTVAKLNIDQNPGTAPKYGIRGIPTLLLFKNGEVAATKVGALSKGQLKEFLDANLA
notes: Built as the yeast two-hybrid prey; The construct used in the GST pulldown is not described
B3: peptide aptamer KDI3 (SEQ ID NO:2), displayed in E. coli thioredoxin A (TrxA) (designed binder, not shown: large carriers)
chain: MSDKIIHLTDDSFDTDVLKADGAILVDFWAEWCGTFSPVVLLYRLFLATVLIWAPCKMIAPILDEIADEYQGKLTVAKLNIDQNPGTAPKYGIRGIPTLLLFKNGEVAATKVGALSKGQLKEFLDANLA
notes: as for B2

This assay deals with T1, Gal4 DNA binding domain alone (UniProt P04386 1-147).
T1 construct: Negative control bait in the yeast two-hybrid retransformation
T1 sequence (P04386 1-147 limits assumed): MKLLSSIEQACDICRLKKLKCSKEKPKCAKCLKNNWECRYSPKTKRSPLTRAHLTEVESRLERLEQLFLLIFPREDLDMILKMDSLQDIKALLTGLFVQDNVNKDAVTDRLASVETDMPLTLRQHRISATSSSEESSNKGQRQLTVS
The assay can be described thus: yeast two-hybrid, retransformation of rescued plasmids.
For the molecule B1, the binding result was “no binding”.

B2: the binding result is listed as “no binding”.

With B3, the binding result is “no binding”.
